From article PMC12366701 come the findings set out here.

Assay [1] addresses porcine double-stabilized microtubules (dsMTs) (porcine (endogenous in pig brain)) (UniProt P02550). Briefly: TIRF microscopy binding assay; porcine dsMTs attached to coverslips via an anti-β-tubulin antibody; 100 nM Janelia Fluor 549-labelled TTLL11 variants in 40 mM tris-HCl pH 7.0, 1 mM TCEP, 1 mM MgCl2, 5% glycerol, casein, 10 μM paclitaxel; 22°C; intensity per μm of MT normalized to the control.

Assay [2] concerns the target AspN-treated porcine dsMTs (β-tubulin C-tail removed) (porcine (endogenous in pig brain)) (UniProt P02550). Described as above.

UniProt P02550, sequence (P02550 whole entry, chain 1 of 2): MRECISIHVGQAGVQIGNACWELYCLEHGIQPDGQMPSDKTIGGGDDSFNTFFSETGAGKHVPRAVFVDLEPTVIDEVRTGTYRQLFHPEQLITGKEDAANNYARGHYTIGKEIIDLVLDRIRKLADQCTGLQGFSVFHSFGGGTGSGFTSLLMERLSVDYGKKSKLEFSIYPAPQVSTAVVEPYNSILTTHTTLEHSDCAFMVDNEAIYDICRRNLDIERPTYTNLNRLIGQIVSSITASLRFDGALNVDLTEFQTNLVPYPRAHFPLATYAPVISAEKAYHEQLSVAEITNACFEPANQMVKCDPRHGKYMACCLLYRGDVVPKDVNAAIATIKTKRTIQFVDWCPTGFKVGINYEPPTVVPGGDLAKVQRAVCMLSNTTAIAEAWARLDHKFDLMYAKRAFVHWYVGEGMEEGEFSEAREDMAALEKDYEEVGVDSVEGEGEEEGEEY
UniProt P02550, sequence (P02554 whole entry, chain 2 of 2, further chain): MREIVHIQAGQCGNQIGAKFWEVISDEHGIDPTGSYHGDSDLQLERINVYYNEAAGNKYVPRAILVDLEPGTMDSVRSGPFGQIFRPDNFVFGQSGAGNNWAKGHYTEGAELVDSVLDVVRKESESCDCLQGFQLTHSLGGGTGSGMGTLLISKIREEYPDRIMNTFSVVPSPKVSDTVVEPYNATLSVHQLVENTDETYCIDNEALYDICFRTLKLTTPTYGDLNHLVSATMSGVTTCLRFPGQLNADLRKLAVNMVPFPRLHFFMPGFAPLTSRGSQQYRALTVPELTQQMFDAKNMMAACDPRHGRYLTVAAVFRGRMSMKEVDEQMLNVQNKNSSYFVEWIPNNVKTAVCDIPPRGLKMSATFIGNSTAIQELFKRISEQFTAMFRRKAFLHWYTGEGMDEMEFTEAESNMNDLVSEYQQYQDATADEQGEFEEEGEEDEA

As for “hTTLL11 I594W mutant (from UniProt Q8NHH1 1-710) (enzyme)”, in assay [1], the percent reduction of the fluorescence signal intensity was 80%. The same measure, in the same setting: with “hTTLL11 R601E mutant (from UniProt Q8NHH1 1-710) (enzyme)” the figure was 60%.

B1: human TTLL11 (hTTLL11), full-length (enzyme)
chain: MRRGSSESELAARWEAEAVAAAKAAAKAEAEATAETVAEQVRVDAGAAGEPECKAGEEQPKVLAPAPAQPSAAEEGNTQVLQRPPPTLPPSKPKPVQGLCPHGKPRDKGRSCKRSSGHGSGENGSQRPVTVDSSKARTSLDALKISIRQLKWKEFPFGRRLPCDIYWHGVSFHDNDIFSGQVNKFPGMTEMVRKITLSRAVRTMQNLFPEEYNFYPRSWILPDEFQLFVAQVQMVKDDDPSWKPTFIVKPDGGCQGDGIYLIKDPSDIRLAGTLQSRPAVVQEYICKPLLIDKLKFDIRLYVLLKSLDPLEIYIAKDGLSRFCTEPYQEPTPKNLHRIFMHLTNYSLNIHSGNFIHSDSASTGSKRTFSSILCRLSSKGVDIKKVWSDIISVVIKTVIALTPELKVFYQSDIPTGRPGPTCFQILGFDILLMKNLKPILLEVNANPSMRIEHEHELSPGVFENVPSLVDEEVKVAVIRDTLRLMDPLKKKRENQSQQLEKPFAGKEDALDGELTSAPDCNANPEAHLPSICLKQVFPKYAKQFNYLRLVDRMANLFIRFLGIKGTMKLGPTGFRTFIRSCKLSSSSLSMAAVDILYIDITRRWNSMTLDQRDSGMCLQAFVEAFFFLAQRKFKMLPLHEQVASLIDLCEYHLSLLDEKRLVCGRGVPSGGRPPHRGPPQEPSPSAQPAGDNPPPRTSCANKLSHPRHTLS
modifications: Janelia Fluor 549-HALO probe on the HALO tag (TIRF assay)
In the case of B1, the percent lower fluorescence signal than on intact MTs in assay [2] came out at 50%.
